Results published in paper PMC3155659.

Target: amyloid precursor protein (APP), endogenous mouse (mouse (endogenous in mouse brain and primary neurons))
Assay: co-IP

B1: Disabled1 (Dab1), endogenous mouse (natural protein)
chain: MSTETELQVAVKTSAKKDSRKKGQDRSEATLIKRFKGEGVRYKAKLIGIDEVSAARGDKLCQDSMMKLKGVVAGARSKGEHKQKIFLTISFGGIKIFDEKTGALQHHHAVHEISYIAKDITDHRAFGYVCGKEGNHRFVAIKTAQAAEPVILDLRDLFQLIYELKQREELEKKAQKDKQCEQAVYQTILEEDVEDPVYQYIVFEAGHEPIRDPETEENIYQVPTSQKKEGVYDVPKSQPNSQPLEDFESRFAAATPNRNLSMDFDELLEATKVSAVTQLELFGDMSTPPDITSPPTPATPGDAFLPSSSQTLPGSADVFGSMSFGTAAVPSGYVAMGAVLPSFWGQQPLVQQQIAMGAQPPVAQVIPGAQPIAWGQPGLFPATQQAWPTVAGQFPPAAFMPTQTVMPLAAAMFQGPLTPLATVPGTNDSARSSPQSDKPRQKMGKESFKDFQMVQPPPVPSRKPDQPSLTCTSEAFSSYFNKVGVAQDTDDCDDFDISQLNLTPVTSTTPSTNSPPTPAPRQSSPSKSSASHVSDPTADDIFEEGFESPSKSEEQEAPDGSQASSTSDPFGEPSGEPSGDNISPQDGS
  decrease in APP-Dab1 co-precipitation against control, 20 min of Reelin: 89 % decrease
  decrease in APP-Dab1 co-precipitation against control, 1 hr of Reelin: 87 % decrease
  decrease in APP-Dab1 co-precipitation against control, 4 hrs of Reelin: 67 % decrease
